Here are results for one molecule from article PMC10175261.

For data set [1], the target named is PriA His483Ala (Escherichia coli, UniProt P17888 1-732, H483A). The settings on record: protein: recombinant; tags: N-terminal His; label: 5'-32P on 3L-98 (strand 2); fork 1:2 1:3; ssDNA lagging arm (strand 2).
In data set [2] the target is PriA Thr482Ala (Escherichia coli, UniProt P17888 1-732, T482A). The settings on record: protein: recombinant; tags: N-terminal His; label: 5'-32P on 3L-98 (strand 2); fork 1:2 1:3; ssDNA lagging arm (strand 2).
The target of data set [3] is PriA Asp438Ala (Escherichia coli, UniProt P17888 1-732, D438A). The settings on record: protein: recombinant; tags: N-terminal His; label: 5'-32P on 3L-98 (strand 2); fork 1:2 1:3; ssDNA lagging arm (strand 2).
For data set [4], the target named is PriA CRR triple variant (Escherichia coli, UniProt P17888 1-732, D438A;T482A;H483A). The settings on record: protein: recombinant; tags: N-terminal His; label: 5'-32P on 3L-98 (strand 2); fork 1:2 1:3; ssDNA lagging arm (strand 2).
In data set [5] the target is PriA;PriB (Escherichia coli;Escherichia coli, UniProt P17888;P07013 1-732;1-104, |). The settings on record: protein: recombinant;recombinant; tags: N-terminal His;none; copies: 1;2; label: 5'-32P on 3L-98 (strand 2); fork 1:2 1:3; ssDNA lagging arm (strand 2).
For data set [6], the target named is PriA;PriB N-term Arg44Ala LD (Escherichia coli;Escherichia coli, UniProt P17888;P07013 1-732;1-104+1-104, |R44A;internal_change). The settings on record: protein: recombinant;recombinant; tags: N-terminal His;; copies: 1;1; label: 5'-32P on 3L-98 (strand 2); fork 1:2 1:3; ssDNA lagging arm (strand 2).
Data set [7] deals with PriA;PriB C-term Arg44Ala LD (Escherichia coli;Escherichia coli, UniProt P17888;P07013 1-732;1-104+1-104, |R44A;internal_change). The settings on record: protein: recombinant;recombinant; tags: N-terminal His;; copies: 1;1; label: 5'-32P on 3L-98 (strand 2); fork 1:2 1:3; ssDNA lagging arm (strand 2).

B1: Fork 1 (structured_DNA)
DNA 1: GCAAGCCTTCTACAGGTCGACCGTCCATGGCGACTCGAGACCGCAATACGGATAAGGGCTGAGCACGCCGACGAACATTCACCACGCCAGACCACGTA
DNA 2: GACTATCTACGTCCGAGGCTCGCGCCGCAGACTCATTTAGCCCTTATCCGTATTGCGGTCTCGAGTCGCCATGGACGGTCGACCTGTAGAAGGCTTGC
DNA 3: TACGTGGTCTGGCGTGGTGAATGTTCGTCGGCGTGCTC
For B1, the binding signal in data set [1] is 92.2 ± 3.7 % fork shifted; in data set [2], 91.3 ± 6.5 % fork shifted; in data set [3], 95 ± 1.9 % fork shifted; in data set [4], 95.8 ± 3.1 % fork shifted. The binding result in data set [5], in data set [6] and in data set [7] was “binds” throughout.
